Reference: patent US20250382355A1 (Merck Sharp & Dohme, published 2025)

B1: 11F5 VHH (VHH)
VHH: QVQLVESGGGAVQAGDSLRLSCTASGRTFSTYAVGWFRQAPGKERELLAAITGSGRNPYYPDSLKGRFTISREYAKLPVYLQMNSLKPEDTAVYYCAARRGAIATMPLDYDHWGQGTQVTVSS
B2: 1A11 VHH (VHH)
VHH: QVQLVESGGGLVQAGGSLRLSCEVSGSIYSINSMGWYRQAPGKQRELVAGIVSDGRINYADSVKGRFTISRAKNTVYLQMNSLKPEDTAVYYCAADRAFVYAGDYDYLGQGTQVTVSS
B3: 5D7 VHH (VHH)
VHH: QVQLVESGGGLVQAGGSLRLSCAASGRTGSRYIMGWFRQAPGKEREFVAAINWRGDSTYYADSVKGRFTIARDNAKNTAYLQMNSLKPEDTAVYYCVADRGESYYYTRSTEYTYWGQGTQVTVSS
B4: 19B8 VHH (VHH)
VHH: QVQLVESGGGLVQAGGSLRLSCAASGRTFTNYAMGWFRQAPGKEREFVAAISWSGGGTNYADSVKGRFTISRDNAKNTVYLQMNSPKPEDTAVYYCATTLGYYGSSSRLYEYWGQGTQVTVSS
B5: 9B2 VHH (VHH)
VHH: QVQLVESGGGLVQPGGSLRLSCAASGFTLDNYAIGWFRQAPGKEREGVSCISSSDGDTQYADSVKGRFTISRDNAKNTVYLQMNSLKPEDTAVYYCAVEKVYARSWFFHLCSELDFGSWGQGTQVTVSS
B6: 1E4 VHH (VHH)
VHH: QVLLVESGGGLVQAGGLLRLACSASGRTFTENVMGWFRQAPGKEREFVAAINWNTGSTYYSDSRKGRFTISKDNAKNTMFLQINNLKPEDTAVYYCGGTSSSYYYIGEFIPDYWGQGTQVTVSS
B7: 15H1 VHH (VHH)
VHH: QVQLVESGGGLAQAGGSLRLSCASSGLIFSGSAMGWFRQAPGKEREFVGVISWNGRTTYADSVKGRFTISRDDAVNMVWLQMNNLKPEDTAVYYCAADHLNYGSGDVNPRTYDYWGQGTQVTVSS
B8: 20D11 VHH (VHH)
VHH: QVQLVESGGGLVQAGGSLRLSCAASGRTSSIYSVGWFRQAPGKERELVAGITWSGGTTYYSDSVKGRFTISRDNAKNTVNLQMNNLKPEDTAIYYCAVDRYSMTMSARDYDYWGQGTQVTVSS
B9: 5G11 VHH (VHH)
VHH: QVQLVESGGGLVQAGGSLRLSCAASGRTFSIYAVGWFRQAPGKERDFVAGITWSGGTTYYSDSVKGRFTISRDNAKNTVYLQMNNLKPEDTAIYYCAVDTYSMTLSARSYDYWGQGTQVTVSS
B10: 14F3 VHH (VHH)
VHH: QVQLVESGGGLVQAGGSLRLSCAASGRTSSIYGVGWFRQAPGKERELVALITWSGGTTYYSDSVKGRFTISKDNAKNTVFLQMNNLKPEDTAIYYCAVDTYSMTMSARDYEYWGQGTQVTVSS
B11: 13C8 VHH (VHH)
VHH: QVQLVESGGGLVQAGGSLRLSCAASGRTVNKYMTGWFRQTPGKEREFVASIDWSSTTTHYANSVKGRFTISRDKVKNTVYLQMNGLKPEDTAVYYCAAHQDSSYGYTILPIDYDSWGQGTQVTVSS
B12: 8E9 VHH (VHH)
VHH: QVQLVESGGGLVEAGGSLRLSCVASGSSSSINAMGWYRQAPGKQRELVASISHDGETKYANSVKGRFTISRGNAKNTIYLQMNSLKPEDTAVYYCVGDVAWVVVAGEYDYWGQGTQVTVSS
B13: 10B8 VHH (VHH)
VHH: QVQLVESGGGLVQPGGSLRLSCAASGITLDYYAIAWFRQAPGKEREGVSCFCSSDGDIRYADSVKGRFTISRDNAKNTVYLQMNSLKPEDTAVYYCATERVYSSTWFFHRYSELDFGSWGRGTQVTVSS
B14: 6A1 VHH (VHH)
VHH: QVQLVESGGGLVQAGGSLRLSCTASGNIFSVNVMGWHRQAPGKRRELVAALTNDGRRNYADSVKGRFTISRDNAKNTIYLEMNSLKPEDTAVYYCGTGTLESGFNSWGQGLQVTVSS
B15: 3D4 VHH (VHH)
VHH: QVQLVESGGGLVQPGGSLRLSCAASGFTLDLNSIGWFRQAPGKEREGVSCISPSGSRMHYADSVKGRFTISRDNAKNTVYLQMNSLKPEDTAVYYCATGSPSYHYCSMYGLEYDSWGQGTQVTVPS
B16: 19C10 VHH (VHH)
VHH: QVQLVESGGGLVQPGGSLRLSCAASGFTLDLNSIGWFRQAPGKEREGVSCISPSASSTHYADSVKGRFTISRDNAKNTVYLQMNSLKPEDTAVYYCATGTPSYHYCSMYGLEYDDWGQGTQVTVSS
B17: 19E10 VHH (VHH)
VHH: QVQLVESGGGLVQPGGSLRLSCVASGSTISINSMGWYRQAPGKAREMVATITNDGPIKYADPVKGRFTISRDNPKNTVYLQMNSLKPEDTAVYYCVADRAYWLAGEWEYWGQGTQVTVSS
B18: 7A9 VHH (VHH)
VHH: QVQLVESGGGLVQAGGSLRLSCSASGGTASRSAMGWFRQAPGKEREFVAGISRRNSGSTYVADSYEDSVKGRFTISRDNAKNTIYLQMNSLKPEDTAVYYCAAEPTLGWYVPRRSVEYEYWGQGTQVTVSS
B19: 15H7 VHH (VHH)
VHH: QVQLVESGGRLVQAGGSLRLSCAAPGRTFRNLTLGWFRQAPGKEREFVASTSWPDDEMTYYTDSVKGRFTISRDNAKNTVYLQMNSLKPEDTAVYYCAAASWSGRSTLSYDYDYWGQGTQVTVST
B20: 16H7 VHH (VHH)
VHH: QVQLVESGGGLVQAGGSLRLSCAASGRAFSKDTMGWFRQAPGKEREFVAVISASGDSTYYADFVKGRFTISRDNAKNTEYLQMNSLKPEDTAVYHCAADGARAYYSINAHRYSWAYNYWGQGTQVTVSS
B21: 11F8 VHH (VHH)
VHH: QVQLVESGGGLVQAGGSLRLSCAASGRTVGYYAVGWFRQAPGKERDFVAAISWSGRNTNYADSVTGRFTIFRDNAKNTVDLQMNSLKPEDTAVYYCAADYWNYGSGSEVPNNYDTWGQGTQVTVSS
B22: 5A6 VHH (VHH)
VHH: QVQLVESGGGLAQAGGSLRLSCATSGLTFSMSAMGWFRQAPGNEREFVGVINWNGGSSRYADSVRGRFTISRDNAKNTVYLQMNSLKPEDTGVYYCAADALNIGTGEVNPRLYDYWGQGTQVMVSS

molecular target: SARS-CoV-2 prefusion-stabilized spike protein (SARS-CoV-2-PreS) (SARS-CoV-2, UniProt P0DTC2 14-1208); assay: Biacore, apparent affinity

Question: For B1, which Kd is on record?
Answer: 8 nM

Question: Which Kd does the source give for B2 here?
Answer: < 0.2 nM

Question: Which Kd does the source give for B3 here?
Answer: 1.5 nM

Question: Which Kd does the source give for B4 here?
Answer: 87 nM

Question: B5 was tested. Which Kd did it give?
Answer: 0.61 nM

Question: For B6, which Kd is on record?
Answer: 0.25 nM

Question: With B7 as the binder, how does the Kd read?
Answer: 0.6 nM

Question: Which Kd does the source give for B8 here?
Answer: 2.2 nM

Question: Which Kd does the source give for B9 here?
Answer: 93 nM

Question: B10 was tested. Which Kd did it give?
Answer: 3 nM

Question: With B11 as the binder, how does the Kd read?
Answer: 12 nM

Question: B12 was tested. Which Kd did it give?
Answer: 5.7 nM

Question: For B13, which Kd is on record?
Answer: < 0.2 nM

Question: B14 was tested. Which Kd did it give?
Answer: > 500 nM

Question: For B15, which Kd is on record?
Answer: < 0.2 nM

Question: B16 was tested. Which Kd did it give?
Answer: < 50 nM

Question: B17 was tested. Which Kd did it give?
Answer: 0.73 nM

Question: B18 was tested. Which Kd did it give?
Answer: 0.22 nM

Question: With B19 as the binder, how does the Kd read?
Answer: 0.33 nM

Question: With B20 as the binder, how does the Kd read?
Answer: 230 nM

Question: For B21, which Kd is on record?
Answer: 0.95 nM

Question: With B22 as the binder, how does the Kd read?
Answer: 0.46 nM
